According to the supplement of paper PMC9112550, “Optimization of the antimicrobial peptide Bac7 by deep mutational scanning” (BMC Biology, 2022):

Each sequence was assayed on Escherichia coli TOP10 (assay: shrunken log2 fold change of peptide-encoding DNA abundance (4.5 h post-induction vs induction); higher = less antimicrobial activity (less host growth inhibition)). Conditions: time post-induction: 4.5 h; library: site-saturation at positions 5, 18, 19, 20.
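Note: peptides expressed intracellularly from a pBAD plasmid library in pooled LB shake-flask culture, induced with 0.3% L-arabinose, DNA abundance read by NGS, three biological replicates, DESeq2 with apeglm shrinkage.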

| Sequence | shrunken log2 fold change |
| --- | --- |
| RRIRVRPPRLPRPRPRPMTRPRP | -0.123 |
| RRIRVRPPRLPRPRPRPMTWPRP | -0.124 |
| RRIRVRPPRLPRPRPRPMWNPRP | -0.0504 |
| RRIRVRPPRLPRPRPRPMWRPRP | 0.127 |
| RRIRVRPPRLPRPRPRPMWWPRP | -0.0322 |
| RRIRVRPPRLPRPRPRPNAKPRP | 0.328 |
| RRIRVRPPRLPRPRPRPNCKPRP | -0.368 |
| RRIRVRPPRLPRPRPRPNDYPRP | -0.00419 |
| RRIRVRPPRLPRPRPRPNGEPRP | 0.0914 |
| RRIRVRPPRLPRPRPRPNHRPRP | -0.199 |
| RRIRVRPPRLPRPRPRPNHSPRP | -0.632 |
| RRIRVRPPRLPRPRPRPNICPRP | 0.27 |
| RRIRVRPPRLPRPRPRPNISPRP | -0.321 |
| RRIRVRPPRLPRPRPRPNKPPRP | -0.0479 |
| RRIRVRPPRLPRPRPRPNLRPRP | 0.0738 |
| RRIRVRPPRLPRPRPRPNMVPRP | -0.201 |
| RRIRVRPPRLPRPRPRPNNVPRP | -0.117 |
| RRIRVRPPRLPRPRPRPNPPPRP | 0.231 |
| RRIRVRPPRLPRPRPRPNPYPRP | -0.376 |
| RRIRVRPPRLPRPRPRPNRMPRP | -0.093 |
| RRIRVRPPRLPRPRPRPNVPPRP | -0.345 |
| RRIRVRPPRLPRPRPRPNWEPRP | 0.104 |
| RRIRVRPPRLPRPRPRPNYQPRP | -0.699 |
| RRIRVRPPRLPRPRPRPPANPRP | 0.3 |
| RRIRVRPPRLPRPRPRPPCIPRP | -0.00689 |

| Sequence | shrunken log2 fold change |
| --- | --- |
| RRIRVRPPRLPRPRPRPPCWPRP | 0.422 |
| RRIRVRPPRLPRPRPRPPEAPRP | -0.0358 |
| RRIRVRPPRLPRPRPRPPFPPRP | 0.369 |
| RRIRVRPPRLPRPRPRPPHDPRP | 0.65 |
| RRIRVRPPRLPRPRPRPPHQPRP | 0.0363 |
| RRIRVRPPRLPRPRPRPPIVPRP | 0.0432 |
| RRIRVRPPRLPRPRPRPPKAPRP | 0.077 |
| RRIRVRPPRLPRPRPRPPKFPRP | 0.133 |
| RRIRVRPPRLPRPRPRPPNAPRP | 0.295 |
| RRIRVRPPRLPRPRPRPPQEPRP | 0.177 |
| RRIRVRPPRLPRPRPRPPQGPRP | 0.203 |
| RRIRVRPPRLPRPRPRPPQNPRP | 0.188 |
| RRIRVRPPRLPRPRPRPPRQPRP | 0.583 |
| RRIRVRPPRLPRPRPRPPRVPRP | 0.305 |
| RRIRVRPPRLPRPRPRPPRWPRP | 0.812 |
| RRIRVRPPRLPRPRPRPPSYPRP | 0.00807 |
| RRIRVRPPRLPRPRPRPPTIPRP | 0.0741 |
| RRIRVRPPRLPRPRPRPPVIPRP | -0.101 |
| RRIRVRPPRLPRPRPRPPWEPRP | 0.252 |
| RRIRVRPPRLPRPRPRPPWNPRP | 0.0143 |
| RRIRVRPPRLPRPRPRPPWPPRP | 0.464 |
| RRIRVRPPRLPRPRPRPPYDPRP | -0.0602 |
| RRIRVRPPRLPRPRPRPPYLPRP | -0.0916 |
| RRIRVRPPRLPRPRPRPPYWPRP | 0.121 |
| RRIRVRPPRLPRPRPRPQAYPRP | -0.00917 |

| Sequence | shrunken log2 fold change |
| --- | --- |
| RRIRVRPPRLPRPRPRPQCKPRP | -0.129 |
| RRIRVRPPRLPRPRPRPQDDPRP | -0.006 |
| RRIRVRPPRLPRPRPRPQDSPRP | -0.069 |
| RRIRVRPPRLPRPRPRPQFIPRP | -0.128 |
| RRIRVRPPRLPRPRPRPQGMPRP | -1.02 |
| RRIRVRPPRLPRPRPRPQGNPRP | 0.055 |
| RRIRVRPPRLPRPRPRPQIHPRP | -1.01 |
| RRIRVRPPRLPRPRPRPQILPRP | -0.451 |
| RRIRVRPPRLPRPRPRPQLMPRP | -0.224 |
| RRIRVRPPRLPRPRPRPQLQPRP | -0.104 |
| RRIRVRPPRLPRPRPRPQLRPRP | 0.0648 |
| RRIRVRPPRLPRPRPRPQLVPRP | -0.048 |
| RRIRVRPPRLPRPRPRPQNTPRP | -0.524 |
| RRIRVRPPRLPRPRPRPQPDPRP | 0.23 |
| RRIRVRPPRLPRPRPRPQPKPRP | 0.0199 |
| RRIRVRPPRLPRPRPRPQQLPRP | -0.0555 |
| RRIRVRPPRLPRPRPRPQREPRP | -0.0361 |
| RRIRVRPPRLPRPRPRPQVDPRP | 0.00887 |
| RRIRVRPPRLPRPRPRPQVGPRP | 0.251 |
| RRIRVRPPRLPRPRPRPQWEPRP | 0.0101 |
| RRIRVRPPRLPRPRPRPQWNPRP | -0.386 |
| RRIRVRPPRLPRPRPRPQWQPRP | 0.0741 |
| RRIRVRPPRLPRPRPRPQYAPRP | -0.193 |
| RRIRVRPPRLPRPRPRPQYIPRP | -0.655 |
| RRIRVRPPRLPRPRPRPQYMPRP | -0.554 |
